Source: patent US5663067

Legend:
[1] = test system: T1, SapI M1 methylase (Saccharopolyspora sp.); experiment: cell_activity; conditions: M1 and M2 co-expressed in E. coli from pACYC184-SapIM1-M2; SapI site protection
T1 sequence: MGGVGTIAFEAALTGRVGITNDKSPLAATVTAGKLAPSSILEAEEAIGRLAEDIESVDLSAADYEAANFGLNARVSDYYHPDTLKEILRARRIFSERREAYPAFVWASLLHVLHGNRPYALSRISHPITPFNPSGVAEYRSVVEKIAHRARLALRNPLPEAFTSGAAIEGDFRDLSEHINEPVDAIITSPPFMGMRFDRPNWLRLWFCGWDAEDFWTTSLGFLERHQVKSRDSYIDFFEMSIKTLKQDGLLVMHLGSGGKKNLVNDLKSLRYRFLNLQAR

[2] = test system: T2, SapI M2 methylase (Saccharopolyspora sp.); experiment: cell_activity; conditions: M1 and M2 co-expressed in E. coli from pACYC184-SapIM1-M2; SapI site protection
T2 sequence: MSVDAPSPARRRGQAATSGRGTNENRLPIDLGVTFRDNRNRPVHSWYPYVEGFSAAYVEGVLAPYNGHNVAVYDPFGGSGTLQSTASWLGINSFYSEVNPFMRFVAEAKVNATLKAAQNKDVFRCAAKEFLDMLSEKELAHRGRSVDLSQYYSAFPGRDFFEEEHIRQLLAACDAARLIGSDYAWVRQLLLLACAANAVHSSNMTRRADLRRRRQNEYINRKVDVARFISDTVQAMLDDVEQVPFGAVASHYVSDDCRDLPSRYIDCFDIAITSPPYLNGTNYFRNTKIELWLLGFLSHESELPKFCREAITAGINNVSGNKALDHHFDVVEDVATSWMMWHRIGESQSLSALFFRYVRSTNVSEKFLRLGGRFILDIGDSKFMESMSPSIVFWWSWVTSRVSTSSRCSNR

[3] = test system: T3, SapI restriction endonuclease (recombinant) (Saccharopolyspora sp.); experiment: cleavage_in_vitro; conditions: supernatant of lysate assayed on lambda DNA; purified enzyme also assayed on lambda DNA
T3 sequence: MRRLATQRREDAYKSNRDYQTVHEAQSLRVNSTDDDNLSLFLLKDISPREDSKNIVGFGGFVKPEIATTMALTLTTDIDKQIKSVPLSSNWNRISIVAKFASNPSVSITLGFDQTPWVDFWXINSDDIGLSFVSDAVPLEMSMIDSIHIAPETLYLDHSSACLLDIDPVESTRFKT

Substance	activity (% of DNA resistant to SapI) [1]	activity (% of DNA resistant to SapI) [2]	activity (units per g wet cells) [3]
pUC19 plasmid DNA (one SapI site)	70	70	
lambda DNA			20000
